Experiment [1] addresses T1, human CD33 on cells (MOLM-13, Kasumi-1, OCI-AML-3, Kasumi-3) (human, UniProt P20138 18-364).
T1 construct: whole, on cells; also called CD33 expressing cells; CD33+ cell lines
The experiment in a line: flow cytometry on MOLM-13 cells, 4 °C, serial dilutions of the antibody.
Method: (§1) Cells were harvested, washed once with PBS and then stained with the fixable viability dye at room temperature for 30 min. Following incubation, cells were washed twice with FACS buffer (PBS+2% FBS). Cells were then used for binding assay with test antibodies. 100,000 cells were stained with the test antibodies in a 100 ul staining volume. Antibodies for staining were diluted in FACS buffer and incubated with the cells for 40 mins on ice, followed by washing 2X with FACS buffer. Test antibodies were then detected using the PE conjugated Goat F(ab′)2 Anti-Human IgG-Fc (ab98596; Abcam) for 40 minutes on ice. Following washing, data was acquired on the Novocyte flow cytometer (ACEA). Cells were gated on FSC/SSC, followed by live cell gating and doublet discrimination. Data was analyzed using Flow Jo (BD).
(§2) Median fluorescence intensity values were used to plot a 4-parameter non-linear regression analysis curve after subtracting the MFI of the secondary only sample.
(§3) The binding EC₅₀ values of CD33 antibodies to high (MOLM-13), medium (Kasumi-1) and low (OCI-AML-3) cell lines were assayed. Binding was carried out at 4° C. with serial dilutions of the antibody.

In experiment [2] the target is T1, human CD33 on cells (MOLM-13, Kasumi-1, …). The experiment in a line: flow cytometry on OCI-AML-3 cells, 4 °C, serial dilutions of the antibody.
Method: as §1, §2, §3
Experiment [3] has the same target. The experiment in a line: flow cytometry on OCI-AML-3 cells, 4 °C, detection with PE goat F(ab')2 anti-human IgG-Fc [contd].
For experiment [4] the target is unchanged. The experiment in a line: flow cytometry on Kasumi-1 cells, 4 °C, serial dilutions of the antibody.
Method: as §1, §2, §3
Experiment [5] has the same target. The experiment in a line: flow cytometry on MOLM-13 cells, 4 °C, detection with PE goat F(ab')2 anti-human IgG-Fc.
Method: MOLM-13, Kasumi-1, OCI-AML-3 and HDLM-2 cells were stained for viability by fixable violet dead cell stain (L34955, ThermoFisher) according to the manufacturer's protocol. Cells were harvested, washed once with PBS and then stained with the fixable viability dye at room temperature for 30 min. Following incubation, cells were washed twice with FACS buffer (PBS+2% FBS). Cells were then used for binding assay with test antibodies. 100,000 cells were stained with the test antibodies in a 100 ul staining volume. Antibodies for staining were diluted in FACS buffer and incubated with the cells for 40 mins on ice, followed by washing 2X with FACS buffer. Test antibodies were then detected using the PE conjugated Goat F(ab′)2 Anti-Human IgG-Fc (ab98596; Abcam) for 40 minutes on ice. Following washing, data was acquired on the Novocyte flow cytometer (ACEA). […] Data was analyzed using Flow Jo (BD).
as §2
Binding was performed by incubating the cells with the serial dilutions of the CD33 antibody at 4° C. followed by detection with PE conjugated Goat F(ab′)2 Anti-Human IgG-Fc antibody. […] Median fluorescence intensity (MFI) versus log concentration of antibody are plotted.
For experiment [6] the target is unchanged. Kind of experiment: flow cytometry on OCI-AML-3 cells, 4 °C, detection with PE goat F(ab')2 anti-human IgG-Fc [contd]. The source holds these as a separate data set.
Experiment [7] has as its target T2, human CD33 (full length ECD), recombinant (human, UniProt P20138 18-259).
T2 construct: extracellular domain; Tag or HSA fusion partner unknown; also called hu CD33 (FL ECD); hCD33-FL ECD
The experiment in a line: SPR (Biacore 8K), vHH-mono-Fc captured by anti-human Fc, antigen in solution.
Method: (§4) The binding affinity of anti-CD33 antibodies and Llama vHHs to the recombinant human CD33 (FL ECD or IgC2 domain) was determined by surface plasmon resonance (SPR) using Biacore 8K instrument. […] The association and dissociation were monitored for 2 and 30 minutes, respectively, using a flow rate of 50 μL/min. Raw binding data was referenced by subtracting the analyte binding signals from blanks and analyzed using a 1:1 Langmuir binding model using the Biacore software to obtain the kinetics which were used to calculate the binding affinity.
(§5) The anti-CD33 Llama vHHs on a mono-Fc backbone were captured using an anti-human Fc antibody and the antigens were injected in solution.

Experiment [8] addresses T3, human CD33 IgC2 domain, recombinant (human, UniProt P20138 136-259).
T3 construct: domain: IgC2; also called hu CD33 (IgC2); hCD33-IgC2
The experiment is described as above.
Method: as §4, §5

Experiment [9] concerns the target T3, human CD33 IgC2 domain, recombinant. Kind of experiment: SPR, Biacore 8K, 25 °C, vHH-mono-Fc captured by anti-Fc antibody, CD33-hu-domain injected as analyte, 1:1 binding model.
Method: as §4, §5
The target in experiment [10] is T2, human CD33 (full length ECD), …. Kind of experiment: SPR, Biacore 8K, 25 °C, vHH-mono-Fc captured by anti-Fc antibody, CD33-hu-FL injected as analyte, 1:1 binding model [contd].
Method: as §4, §5
For experiment [11] the target is unchanged. The experiment is described as above. This is another data set of the same source.
Method: as §4, §5
Experiment [12] addresses T3, human CD33 IgC2 domain, recombinant. The experiment in a line: SPR, Biacore 8K, 25 °C, vHH-mono-Fc captured by anti-Fc antibody, CD33-hu-domain injected as analyte, 1:1 binding model [contd].
Method: as §4, §5
In experiment [13] the target is T1, human CD33 on cells (MOLM-13, Kasumi-1, …). Kind of experiment: FACS binding on MOLM-13 cells.
For experiment [14] the target is unchanged. The experiment in a line: FACS binding on Kasumi-1 cells.
Experiment [15] has the same target. Kind of experiment: FACS binding on OCI-AML-3 cells.

This note sets out measurements from patent US20230365684A1 (Janssen / Centocor, published 2023).

Changes are numbered by the printed parent chain. Where two headings read alike, the source gives them in different places.

T1 sequence (P20138 18-364): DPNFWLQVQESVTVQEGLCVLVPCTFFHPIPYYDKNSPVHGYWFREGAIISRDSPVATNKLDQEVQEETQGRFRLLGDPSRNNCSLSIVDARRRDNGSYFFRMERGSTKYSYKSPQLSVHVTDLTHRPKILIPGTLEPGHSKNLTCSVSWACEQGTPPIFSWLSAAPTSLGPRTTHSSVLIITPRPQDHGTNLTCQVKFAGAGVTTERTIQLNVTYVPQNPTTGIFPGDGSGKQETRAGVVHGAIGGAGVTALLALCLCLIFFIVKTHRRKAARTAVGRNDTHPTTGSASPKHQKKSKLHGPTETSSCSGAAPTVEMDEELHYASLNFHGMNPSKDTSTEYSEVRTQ
T2 sequence (P20138 18-259): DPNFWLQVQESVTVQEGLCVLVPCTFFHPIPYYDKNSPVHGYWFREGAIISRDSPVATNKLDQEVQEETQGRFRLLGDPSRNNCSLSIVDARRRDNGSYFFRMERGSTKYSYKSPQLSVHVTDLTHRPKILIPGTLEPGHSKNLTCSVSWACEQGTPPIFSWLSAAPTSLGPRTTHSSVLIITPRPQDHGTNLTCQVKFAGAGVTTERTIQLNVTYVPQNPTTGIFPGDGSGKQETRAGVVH
T3 sequence (P20138 136-259 limits assumed): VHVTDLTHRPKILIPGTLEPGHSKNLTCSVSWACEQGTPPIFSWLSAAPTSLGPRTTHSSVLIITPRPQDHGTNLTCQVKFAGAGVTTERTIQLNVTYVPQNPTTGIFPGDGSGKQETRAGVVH

B1: C33B1477 (antibody, V domains shown)
VH: EVQLVESGGGLVQPGGSLKVSCEASGFTFSVSAIHWVRQASGKGLEWIGRIRSKGNSYATAYAASVKGRFTISRDDSKNTAYLQMDSLKTEDTAVYYCTRHNDKWNYYGLDVWGQGTTVTVSS
VL: DIVMTQSPLSLPVTPGEPASISCKSSQSLLFSNGYKFLDWYLQRPGQSPQLLIYLGSYRASGVPDRFSGSGSGTDFTLKISRVEAEDVGLYYCMQALQTPPTFGGGTKVEIK
notes: also called sCD33B1477
Turning to B1, the EC50 in experiment [1] was 56 nM; in experiment [2], 0.6 nM. The “EC50 (read off the curve)” value in experiment [3] was approximately 0.09 µg/mL.

B2: C33B836.006 (antibody, V domains shown)
VH: QVQLVQSGSELRKPGASVKVSCKASGYTFTNYAMNWVRQAPGQGLEWMGWINTNTGNPTYAQGFTGRFVFSLDTSVSSAYLQISSLKAEDTAMYYCATDRDRGTDYWGQGTLVTVSS
VL: QSALTQPASVSGSPGQSITISCTGTSSDVGDYNYVSWYQQHPGKVPKLMIYDVSNRPSGVSNRFSGSMSGNTASLTISGLQAEDEADYYCSSYSSSSALEVFGGGTKLTVL
notes: also called sC33B836.006
In the case of B2, the EC50 in experiment [1] was determined as 0.5 nM; in experiment [4], 17.1 nM; in [2] it was 0.46 nM. The half-maximal effective concentration (EC50 (read off the curve)) in experiment [5] and in experiment [6] was approximately 0.08 µg/mL in each case.

B3: C33B1780 (llama vHH on mono-Fc backbone) (Fc fusion)
chain: EVQLVESGGGLVQPGGSLRLSCAVFGFSLSDYAIGWFRQAPGKEREKVSCISESDGRTYLSDSVKSRFTISRDNGKNTVYLQMNNLKPDDTGVYYCATVDQAISESSYHCEKGFGSWGQGTQVTVSS
notes: not shown: mono-Fc backbone
For the molecule B3, the Kd in [7] was found to be 0.847 nM; in [8], 3.38 nM. In addition, the kon in experiment [9] worked out at 962000 M⁻¹ s⁻¹; in experiment [10], 1.38e+06 M⁻¹ s⁻¹. The koff in [10] came out at 0.00117 s⁻¹.

B4: C33B1785 (llama vHH on mono-Fc backbone) (Fc fusion)
chain: B3 chain with E1Q, L11S
notes: not shown: mono-Fc backbone
For B4, the Kd amounted to 0.661 nM in experiment [7] and 3.31 nM in experiment [8]. In addition, the koff worked out at 0.000928 s⁻¹ in [11] and 0.0034 s⁻¹ in experiment [12]. In addition, the figures for the kon in [11] and in experiment [12] were 1.4e+06 M⁻¹ s⁻¹ and 1.03e+06 M⁻¹ s⁻¹, respectively.

B5: C33B904 (antibody, V domains shown)
VH: EVQLVESGGGLVQPGRSLRLSCAASGFTFDDYAMHWVRQAPGKGLEWVSGIGWSGGSIVYADSVKGRFTISRDNAKNSLYLQMNSLRAEDTALYYCAKDSPYGDFFDYWGQGTLVTVSS
VL: DIVMTQSPDSLAVSLGERATINCKSSQTVFYSSNNKNYLAWYQQKPGQPPKLLISWASTRKSGVPDRFSGSGSGTDFTLTVSSLQAEDVAVYYCQHYYSTPYTFGQGTKLEIK
notes: also called anti-CD33 antibody (clone C33B904); anti-CD33 clone C33B904
For B5, the EC50 is 134 nM in [13], 82.2 nM in [14] and 16.4 nM in [15].

B6: C33B806.006 (antibody, V domains shown)
VH: QLQLQESGPGLVKPSETLSLTCTVSGGSISSSSYYWGWIRQPPGKGLDWIGSINYSGSTYYNPSLKSRVTISVDTSKIQFSLKLRSVTAADTAVYYCARLDGYESPFDYWGQGTLVTVSS
VL: DIQMTQSPSSVSASVGDRVTITCRASQGISSWLAWYQQKPGKAPKLLIYAASSLQSGVPSRFSGSGSGTDFTLTISSLQPEDFATYYCQQANSFPFTFGPGTKVDIK
Regarding B6, the figures for the 50% effective concentration (EC50) in experiment [1], in [4] and in experiment [2] were 35.6 nM, 0.13 nM and 15.3 nM, respectively. In experiment [6], the concentration giving a half-maximal response (EC50 (read off the curve)) was approximately 2 µg/mL.
